Results published in patent US9193963B2, “Mutant endoglucanase” (Toray Industries, Inc., priority 2011, dated 2015).
Positions count from the first letter of the chain named. Numbers in names are those of the source.

B1: EGSh Wild-type: Staphylothermus hellenicus-derived endoglucanase, SEQ ID NO: 19, parent endoglucanase (protein)
chain: MPARTRIACAVILLLVFLALYIAWPVEGSFLKQQPYNELRGRVLGSNIQIPKDHIPYYHIVNGTIYMDDKLIHLFGVSWFGFELPDHIVYGLWARNWKDILKDIKEMGFNAIRLPFCHESITPGTKPVPGRISYSLNPDLRNLTSLEIMEKIISYANELNIFVLLDYHRIGCRYIEPLWYTDNFSEEQYIKDWVFLAQKFGKYPNVIGADIKNEPHDSASWGTGDNKTDFRLFAERVGQAILQVAPHWLIFIEGVQYTHVPEIDGRNPYSCFWGENLMGVKDYPVRLPKDKIVYSPHVYGPSVYNMPYFNDPEFPRNLPKIWELHFGYLKELGYAIVIGEWGGRYVGKDKVWQDAFADWLIQKGIYDFFYWCLNPESGDTGGIFKSDWRTVNQDKLNLIHRIINAASQAQASTISGKHDWKTYLVLIAPTLLPVLILVILVLLIIKRRYTKKQ
modifications: Staphylothermus hellenicus EGSh
B2: EGSh Mutant: mutant EGSh, SEQ ID NO: 20; residue corresponding to 273rd tryptophan substituted with alanine (protein)
chain: B1 chain with W273A
modifications: Staphylothermus hellenicus EGSh W273A
notes: residue corresponding to 273rd tryptophan substituted with alanine
B3: EGPh(W273Y): comparative mutant of EGPh, the 273rd tryptophan substituted with tyrosine, SEQ ID NO: 49 (protein)
chain: MEGNTILKIVLICTILAGLFGQVVPVYAENTTYQTPTGIYYEVRGDTIYMINVTSGEETPIHLFGVNWFGFETPNHVVHGLWKRNWEDMLLQIKSLGFNAIRLPFCTESVKPGTQPIGIDYSKNPDLRGLDSLQIMEKIIKKAGDLGIFVLLDYHRIGCTHIEPLWYTEDFSEEDFINTWIEVAKRFGKYWNVIGADLKNEPHSVTSPPAAYTDGTGATWGMGNPATDWNLAAERIGKAILKVAPHWLIFVEGTQFTNPKTDSSYKWGYNAWYGGNLMAVKDYPVNLPRNKLVYSPHVYGPDVYNQPYFGPAKGFPDNLPDIWYHHFGYVKLELGYSVVIGEFGGKYGHGGDPRDVIWQNKLVDWMIENKFCDFFYWSWNPDSGDTGGILQDDWTTIWEDKYNNLKRLMDSCSKSSSSTQSVIRSTTPTKSNTSKKICGPAILIILAVFSLLLRRAPR
modifications: Pyrococcus horikoshii EGPh W273Y
B4: EGPh(W273F): comparative mutant of EGPh, tryptophan substituted with phenyl alanine, SEQ ID NO: 50 (protein)
chain: B3 chain with Y273F
modifications: Pyrococcus horikoshii EGPh W273F

Experiments:
[1] = Saccharification of lignocellulose 3 with Trichoderma reesei culture solution and endoglucanase; format: biochemical, Rice straw; settings: Lignocellulose 3, 24 hours; cellulase 1.0 mg/mL + endoglucanase 0.1 mg/mL + β-glucosidase (Novozyme 188) 0.01 mg/mL
Experimental: (§1) Rice straw was used as cellulose. The cellulose was immersed in water, and then autoclaved with agitation at 180° C. for 20 minutes (Nitto Koatsu Co. Ltd.). Pressure at this time was 10 MPa. After treatment, a solution component (hereinafter, referred to as “hydrothermally treated solution”) and the treated biomass component were subjected to solid-liquid separation by centrifugation (3000 G). The thus treated biomass component was used as lignocellulose 3 for the following examples.
(§2) The changes in the amount of glucose generated when the enzyme composition had been caused to act on lignocellulose substrates were compared. The substrates were prepared by suspending 5 wt % lignocelluloses (1 to 3) (prepared in Reference Example 3) in 50 mM acetate buffer (pH5.2). Reactions were performed at 50° C. for 24 hours. The concentrations of the generated glucose were measured after adequate sampling. As a filamentous bacterium-derived cellulase mixture, commercially available Trichoderma reesei-derived cellulase (Celluclast, Sigma) was used. As endoglucanases, the mutant endoglucanases prepared in Example 2 and the wild-type endoglucanases prepared in Reference Example 1 were separately used. The following quantities of enzymes were added: 1.0 mg/mL cellulase, and 0.1 mg/mL endoglucanase (in an amount one tenth that of the cellulase).
(§3) Lignocelluloses (1-3) prepared in Reference Example 3 were used as substrates. The Trichoderma reesei culture solution prepared in Reference Example 4 was used as a filamentous bacterium-derived cellulase mixture. Lignocelluloses (1-3) were hydrolyzed in a manner similar to that in Example 7, except for the quantities of the enzymes added: cellulase (1.0 mg/mL); endoglucanase (0.1 mg/mL (in an amount one tenth that of the cellulase); and β-glucosidase (Novozyme 188) (0.01 mg/mL (in an amount one hundredth that of the cellulase).

[2] = Saccharification of lignocellulose 3 with Celluclast and endoglucanase; format: biochemical, Rice straw; settings: 5 wt % Lignocellulose 3, pH 5.2, 50° C., 24 hours; 1.0 mg/mL cellulase + 0.1 mg/mL endoglucanase
Experimental: as §1, §2

[3] = Saccharification of lignocellulose 1 with Celluclast and endoglucanase; format: biochemical, Rice straw; settings: 5 wt % Lignocellulose 1, pH 5.2, 50° C., 24 hours; 1.0 mg/mL cellulase + 0.1 mg/mL endoglucanase
Experimental: (§4) Rice straw was used as cellulose. The cellulose was added to a small reactor (Taiatsu Techno Corporation, TVS-N2 (30 ml)), and then cooled with liquid nitrogen. An ammonia gas was fed to the reactor, thereby completely immersing the sample in the liquid ammonia. The reactor was closed using its lid, and then left to stand at room temperature for 15 minutes. Subsequently, treatment was performed for 1 hour in an oil bath at 150° C. After treatment, the reactor was removed from the oil bath, an ammonia gas leak was immediately performed within a draft chamber. The reactor was vacuumed using a vacuum pump to 10 Pa for drying. The resultant was used as lignocellulose 1 in the following examples.
as §2

[4] = Inhibition experiment with vanillin: degradation of phosphoric acid swollen cellulose; format: biochemical; settings: enzyme 0.5 μM, 1 hour, 50° C., parent at 0 mM = 100%
[5] = Inhibition experiment with ferulic acid: degradation of phosphoric acid swollen cellulose; format: biochemical; settings: enzyme 0.5 μM, 1 hour, 50° C., parent at 0 mM = 100%
Experimental: This substance was diluted using buffer and water to obtain a 2 wt % mixture so that the final concentration of sodium acetate was 50 mM (pH 5.2). This was designated as phosphoric acid swollen cellulose and used for the following examples.
The activity of the wild-type and the mutant endoglucanases to degrade phosphoric acid swollen cellulose was measured in the presence of ferulic acid. 1% phosphoric acid swollen cellulose/50 mM acetate buffer (pH 5.2) was used as a substrate. Ferulic acid (Sigma Aldrich) was added at final concentrations of 0, 5, 10, and 15 mM. The enzymes prepared in Reference Example 1 and Example 2 were each added at a final concentration of 0.5 μM, followed by 1 hour of enzymatic reaction at 50° C.

[6] = Saccharification of lignocellulose 2 with Celluclast and endoglucanase; format: biochemical, Rice straw; settings: 5 wt % Lignocellulose 2, pH 5.2, 50° C., 24 hours; 1.0 mg/mL cellulase + 0.1 mg/mL endoglucanase
Experimental: (§5) Rice straw was used as cellulose. Cellulose was immersed in a 1% aqueous sulfuric acid solution, and then autoclaved for 30 minutes at 150° C. (Nitto Koatsu Co. Ltd.). After treatment, the resultant was subjected to solid-liquid separation into an aqueous sulfuric acid solution (hereinafter, referred to as “dilute-sulfuric-acid-treated solution”) and cellulose treated with sulfuric acid. Next, the cellulose treated with sulfuric acid was mixed and agitated with the dilute-sulfuric-acid-treated solution so that the solid content concentration was 10 wt %. Then the mixture was adjusted to around pH 5 using sodium hydroxide. The resultant was used as lignocellulose 2 for the following examples.
as §2

[7] = Activity to degrade phosphoric acid swollen cellulose; format: biochemical
Experimental: The term “identity” refers to the percentage of amino acid residues identical to and amino acid residues analogous to the other amino acid residues in all the amino acid residues overlapped when an optimum alignment is performed by introducing gaps or no gaps into two amino acid sequences and then aligning the two amino acid sequences. Such an identity can be found using a method known by persons skilled in the art, sequence analysis software, and the like (a known algorithm such as BLAST or FASTA). The term “endoglucanase activity” is as defined above and can be determined by adding an enzyme solution to a substrate solution of phosphoric acid swollen cellulose that has been dissolved in 50 mM acetic acid-sodium acetate buffer (pH 5.2) or the like, performing 1 hour of reaction at 30° C. to 85° C., stopping the reaction by changing the pH if necessary, and then determining the concentration of glucose in the reaction solution using a glucose determination kit, for example.
The mutants obtained in Comparative Example 1 were compared in terms of activity by a technique similar to that in Example 3. The concentration (g/L) of glucose generated by each parent endoglucanase under the above reaction conditions was determined to be 100%.

[8] = Saccharification of lignocellulose 2 with Trichoderma reesei culture solution and endoglucanase; format: biochemical, Rice straw; settings: Lignocellulose 2, 24 hours; cellulase 1.0 mg/mL + endoglucanase 0.1 mg/mL + β-glucosidase (Novozyme 188) 0.01 mg/mL
Experimental: as §5, §2, §3

[9] = Saccharification of lignocellulose 1 with Trichoderma reesei culture solution and endoglucanase; format: biochemical, Rice straw; settings: Lignocellulose 1, 24 hours; cellulase 1.0 mg/mL + endoglucanase 0.1 mg/mL + β-glucosidase (Novozyme 188) 0.01 mg/mL
Experimental: as §4, §2, §3

[10] = 1% phosphoric acid swollen cellulose, pH 5.2, enzyme 0.5 μM, 1 hour, 50° C., glucose generated by each parent endoglucanase = 100%
[11] = Comparative Example 2, technique similar to Example 3, parent endoglucanase = 100%

Row | Molecule | Relative activity to degrade phosphoric acid swollen cellulose ([4]; vanillin 0 mM) | Relative activity to degrade phosphoric acid swollen cellulose ([4]; vanillin 5 mM) | Relative activity to degrade phosphoric acid swollen cellulose ([4]; vanillin 10 mM) | Relative activity to degrade phosphoric acid swollen cellulose ([4]; vanillin 15 mM) | Relative activity to degrade phosphoric acid swollen cellulose ([5]; ferulic acid 0 mM) | Relative activity to degrade phosphoric acid swollen cellulose ([5]; ferulic acid 5 mM) | Relative activity to degrade phosphoric acid swollen cellulose ([5]; ferulic acid 10 mM) | Relative activity to degrade phosphoric acid swollen cellulose ([5]; ferulic acid 15 mM) | Relative activity [7, 10] | Relative activity [7, 11] | also measured
1 | B1 | 100% | 40% | 35% | 30% | 100% | 65% | 55% | 50% | 100% |  | Concentration of glucose generated, Culture solution + Wild-type [1]: 9 g/L; Concentration of glucose generated, Celluclast + Wild-type [2]: 12 g/L; Concentration of glucose generated, Celluclast + Wild-type [3]: 12 g/L; Concentration of glucose generated, Celluclast + Wild-type [6]: 11 g/L; Concentration of glucose generated, Culture solution + Wild-type [8]: 8 g/L; Concentration of glucose generated, Culture solution + Wild-type [9]: 9 g/L
2 | B2 | 100% | 90% | 85% | 80% | 100% | 95% | 85% | 80% | 100% |  | Concentration of glucose generated, Culture solution + Mutant [1]: 12 g/L; Concentration of glucose generated, Celluclast + Mutant [2]: 15 g/L; Concentration of glucose generated, Celluclast + Mutant [3]: 14 g/L; Concentration of glucose generated, Celluclast + Mutant [6]: 15 g/L; Concentration of glucose generated, Culture solution + Mutant [8]: 12 g/L; Concentration of glucose generated, Culture solution + Mutant [9]: 11 g/L
3 | B3 |  |  |  |  |  |  |  |  |  | 100% | 
4 | B4 |  |  |  |  |  |  |  |  |  | 100% | 
